Results: the supplement of paper PMC7125110
± gives the standard error. For part of these data: Fewer inactive variants are shown than the library holds.

B1: glmS ribozyme (parent)
chain: AUAAAAGCGCCAGAACUACAGAAAUGUAGUUGACGAGGAGGAGGUUUAUCGAAUUUUCGGCGGAUGCCUCCAAA

How the values were obtained:
Details in all cases: with glucosamine-6-phosphate
[1] = variants of: B1; assay: kcat; higher = faster cleavage; RNA array
In short: (§1)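 kobs was derived by fitting per-tile medians to one- or two-exponential decays after normalising signals to baseline and to non-cleaving reference variants. Those signals came from barcoded ribozyme variants transcribed in situ by E. coli RNA polymerase on sequenced MiSeq chips, followed through a hybridised Cy3 probe at 37 °C and imaged over ~14 h. Glucosamine-6-phosphate (40 μM to 10 mM) in HEPES/KCl/Mg(OAc)2 buffer was flowed in. Weighted Michaelis–Menten fits across concentrations then gave kcat and KM.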

[2] = variants of: B1; assay: self-cleavage kobs at 40 uM GlcN6P; higher = faster cleavage; RNA array
In short: as §1

[3] = variants of: B1; assay: self-cleavage kobs at 640 uM GlcN6P; higher = faster cleavage; RNA array
In short: as §1

[4] = variants of: B1; assay: self-cleavage kobs at 2500 uM GlcN6P; higher = faster cleavage; RNA array
In short: as §1

[5] = variants of: B1; assay: self-cleavage kobs at 10000 uM GlcN6P; higher = faster cleavage; RNA array
In short: as §1

[6] = variants of: B1; assay: KM; higher = weaker cofactor use; RNA array
In short: as §1

[7] = variants of: B1; assay: self-cleavage kobs at 160 uM GlcN6P; higher = faster cleavage; RNA array
In short: as §1

Variant | kcat [1] [s⁻¹] | self-cleavage kobs at 40 uM GlcN6P [2] [s⁻¹] | self-cleavage kobs at 640 uM GlcN6P [3] [s⁻¹] | self-cleavage kobs at 2500 uM GlcN6P [4] [s⁻¹] | self-cleavage kobs at 10000 uM GlcN6P [5] [s⁻¹] | KM [6] [µM] | self-cleavage kobs at 160 uM GlcN6P [7] [s⁻¹]
AUAAAAGCGCCAGAACUACAGAAAUGUAGUUGACGAGGAGGAGGUGUAUCGAAUUUUCGGCGGAUACCUGCAAA [U46G G66A C70G] | 0.000845 ± 0.00032 | 6.36e-05 ± 1.7e-05 | 0.000267 ± 6.1e-05 | 0.00046 ± 0.00016 | 0.000907 ± 0.00016 | – | –
AUAAAAGCGCCAGAACUACAGAAAUGUAGUUGACGAGGAGGAGGUUAAUCGAAUUUUCGGCGGAUGCCUACAAA [U47A C70A] | 0.000263 ± 6.7e-05 | – | 0.000122 ± 1.9e-05 | 0.000186 ± 3.4e-05 | – | 858 ± 410 | 3.52e-05 ± 1.2e-05
AUAAAAGCGCCAGAACUACAGAAAUGUAGUUGACGAGGAGGAGGUGGAUCGAAUUUUCGGCGGAUGCCUCCAAA [U46G U47G] | 0.00226 ± 0.00039 | 6.82e-05 ± 2e-05 | 0.000551 ± 0.00016 | 0.00191 ± 0.00051 | 0.00188 ± 0.00039 | 1530 ± 410 | 0.000208 ± 5.4e-05
AUAAAAGCGCCAGAACUACAGAAAUGUAGUUGACGAGGAGGAGGUUAAUCGAAUUUUCGGCGGAUGCUUCCAAA [U47A C68U] | 0.00394 ± 0.0013 | 7.13e-05 ± 1.3e-05 | 0.00068 ± 0.00012 | 0.00129 ± 0.00025 | 0.00346 ± 0.00049 | 3290 ± 1500 | 0.000161 ± 3.2e-05
AUAAAAGCGCCAGAACUACAGAAAUGUAGUUGACGAGGAGGAGGUUAAUCGGAUUUUCGGCGGAUGCCUCCAAA [U47A A52G] | 0.00213 ± 0.00047 | 3.28e-05 ± 1.5e-05 | 0.000221 ± 3.3e-05 | 0.000661 ± 9.9e-05 | 0.00146 ± 0.0002 | 5080 ± 1600 | 8.42e-05 ± 1.9e-05
AUAAAAGCGCCAGAACUACAGAAAUGUAGUUGACGAGGAGGAGGUGUAUCGAAUUUUCGGCGGAUUCCUCCAAA [U46G G66U] | 0.000756 ± 0.00014 | – | 0.000177 ± 2.9e-05 | 0.000448 ± 8e-05 | 0.000578 ± 8.8e-05 | 2360 ± 740 | 3.38e-05 ± 1.2e-05
AUAAAAGCGCCAGAACUACAGAAAUGUAGUUGACGAGGAGGAGGUUAAUCGAAUUUUCGGCGGAUGGCUCCAAA [U47A C67G] | 0.000644 ± 7e-05 | – | 0.000147 ± 1.3e-05 | 0.000379 ± 5.1e-05 | 0.000534 ± 6.4e-05 | 2020 ± 350 | 5.63e-05 ± 9.9e-06
AUAAAAGCGCCAGAACUACAGAAAUGUAGUUGACGAGGAGGAGGUUAAUCGAAUUUUCGGCGGAUGUCUCCAAA [U47A C67U] | 0.00772 ± 0.0031 | 0.00025 ± 3.1e-05 | 0.003 ± 0.00062 | 0.00497 ± 0.0016 | 0.00638 ± 0.00092 | – | 0.000428 ± 7.1e-05
AUAAAAGCGCCAGAACUACAGAAAUGUAGUUGACGAGGAGGAGGUGUAUCGAAUUUUCGGCGGAAGCCUCUAAA [U46G U65A C71U] | 0.00287 ± 0.00028 | 4.68e-05 ± 1.3e-05 | 0.000735 ± 0.00016 | 0.00173 ± 0.00035 | 0.00224 ± 0.00038 | 2140 ± 340 | 0.000191 ± 6.8e-05
AUAAAAGCGCCAGAACUACAGAAAUGUAGUUGACGAGGAGGAGGUUAAUCGAAUUUUCGGCGGAUGCCUCGAAA [U47A C71G] | 0.000753 ± 9.5e-05 | 2.61e-05 ± 8.5e-06 | 0.000227 ± 5.2e-05 | 0.00055 ± 0.00011 | 0.000682 ± 9.3e-05 | 1130 ± 300 | 0.000142 ± 4.2e-05
AUAAAAGCGCCAGAACUACAGAAAUGUAGUUGACGAGGAGGAGGUGUAUCGAAUUUUCUGCGGAUGCCUCCAAA [U46G G59U] | < 1e-05 | < 1e-05 | < 1e-05 | – | – | – | –
AUAAAAGCGCCAGAACUACAGAAAUGUAGUUGACGAGGAGGAGGUGUAUCGAAAUUUCGGCGGAUGCCUCCAAA [U46G U54A] | 0.00945 ± 0.0015 | 0.000165 ± 2.1e-05 | 0.00207 ± 0.00034 | 0.00434 ± 0.0016 | 0.00766 ± 0.0012 | 2450 ± 490 | 0.000444 ± 0.00011
AUAAAAGCGCCAGAACUACAGAAAUGUAGUUGACGAGGAGGAGGUGUAUCGAAUUUUCGGCGGAUUUCUCCAAA [U46G G66U C67U] | 0.000249 ± 2.4e-05 | – | 0.000128 ± 3e-05 | 0.000172 ± 6.1e-05 | 0.00023 ± 3.9e-05 | 804 ± 230 | –
